One experiment addresses bovine serum albumin (bovine, UniProt P02769 25-607). The experiment can be described thus: ELISA, plate coated with BSA. A general note: In an ELISA, binding on a coated surface is turned into a signal by an enzyme label.
Experiment [1] has as its target T1, LASV Josiah GPC on pseudotyped rVSV (Lassa virus (Josiah strain), UniProt P08669 1-491).
T1 sequence: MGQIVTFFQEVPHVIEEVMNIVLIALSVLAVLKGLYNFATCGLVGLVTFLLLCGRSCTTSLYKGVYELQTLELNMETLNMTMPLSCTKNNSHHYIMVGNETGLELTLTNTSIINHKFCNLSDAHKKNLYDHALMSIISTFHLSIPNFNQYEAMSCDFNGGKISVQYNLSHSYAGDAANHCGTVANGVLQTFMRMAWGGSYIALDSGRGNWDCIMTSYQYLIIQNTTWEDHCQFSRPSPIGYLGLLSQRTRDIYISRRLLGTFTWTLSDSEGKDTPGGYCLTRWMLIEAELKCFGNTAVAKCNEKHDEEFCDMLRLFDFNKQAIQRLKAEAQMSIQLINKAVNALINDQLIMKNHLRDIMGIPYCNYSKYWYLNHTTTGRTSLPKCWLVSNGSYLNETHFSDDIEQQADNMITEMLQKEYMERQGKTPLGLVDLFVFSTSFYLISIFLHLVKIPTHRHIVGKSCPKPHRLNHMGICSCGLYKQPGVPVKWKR
The experiment can be described thus: cell-based or functional assay.

Experiment [2] deals with T2, LASV GP1 subunit protein (Lassa virus, UniProt P08669 59-259).
T2 sequence: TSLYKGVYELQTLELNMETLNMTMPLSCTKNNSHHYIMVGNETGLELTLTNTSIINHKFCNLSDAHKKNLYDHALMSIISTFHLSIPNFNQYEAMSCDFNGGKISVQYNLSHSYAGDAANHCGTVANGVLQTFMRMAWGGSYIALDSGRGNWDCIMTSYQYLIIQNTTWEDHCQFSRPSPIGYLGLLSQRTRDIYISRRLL
The experiment can be described thus: BLI. On the technique in general: BLI is a label-free optical method that tracks binding on a fibre tip over time.

Experiment [3] has as its target T2, LASV GP1 subunit protein. Briefly: BLI. The source holds these as a separate data set.
Experiment [4] has as its target LASV GP2 subunit protein (Lassa virus). The experiment can be described thus: BLI.

Consider seven molecules from US20240218055A1 (US Dept. of Health and Human Services, published 2024).

Where two headings read alike, the source gives them in different places. A value given as a limit tells only on which side of the number the result lay.

Sequence of bovine serum albumin (P02769 25-607 limits assumed): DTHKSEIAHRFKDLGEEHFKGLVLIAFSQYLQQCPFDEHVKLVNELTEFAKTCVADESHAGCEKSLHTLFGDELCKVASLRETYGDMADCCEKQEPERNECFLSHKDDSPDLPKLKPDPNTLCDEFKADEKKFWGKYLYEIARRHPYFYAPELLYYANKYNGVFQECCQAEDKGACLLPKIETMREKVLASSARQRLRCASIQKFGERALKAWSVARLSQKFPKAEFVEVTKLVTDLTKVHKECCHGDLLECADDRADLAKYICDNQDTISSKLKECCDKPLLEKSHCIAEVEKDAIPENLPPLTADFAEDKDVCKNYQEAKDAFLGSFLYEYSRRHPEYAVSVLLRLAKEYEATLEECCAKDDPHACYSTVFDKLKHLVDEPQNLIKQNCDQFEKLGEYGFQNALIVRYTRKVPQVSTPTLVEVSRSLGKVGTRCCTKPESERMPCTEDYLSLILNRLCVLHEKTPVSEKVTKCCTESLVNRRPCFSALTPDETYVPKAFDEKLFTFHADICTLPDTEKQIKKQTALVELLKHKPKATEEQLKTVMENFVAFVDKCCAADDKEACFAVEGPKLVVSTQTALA

B1: shark VNAR A10 (VNAR)
chain: ARVDQTPQTITKETGESLTITCILRDSQCALSPTYWYHKKSGSTKPERIYKGGRYVETVNSGSKSFSLRINDLTVEDSGTFFCKVSGWYAYSCRLEPDGYYDVYGGGTVVTVN
With B1, the binding result in the experiment with bovine serum albumin is “no binding (tested: 1 ug/ml (single concentration))”. Also, in experiment [1], the “neutralization of LASV pseudotyped Josiah virus” value was < 50%. In the experiment with LASV GP1 subunit protein [2], the Kd came out at 22.7 nM.

B2: shark VNAR A1 (VNAR)
VNAR: ARVDQTPQTITKETGESLTINCVPPDSNCALADTYWYRKKSGSTNEESISKGGRYVPTVNSGSKSFILRINDLRVADSGTYRCKVSCYAAAYYGQQLERLYDVYGGGTAVTVN
B2: the binding result in the experiment with bovine serum albumin is “no binding (tested: 1 ug/ml (single concentration))”. In experiment [1], the “neutralization of LASV pseudotyped Josiah virus” value was < 50%. This molecule also returned a Kd in the experiment with LASV GP1 subunit protein [2] of 18.6 nM.

B3: bivalent single domain antibody D5 in IgG2a format (Fc fusion)
chain 1: AWQLVESGGGSVQPGGSLTLTCQASKSTFSTSGMRWERQAQGKGVEFVADISSDSTRKWYSDSVKGRFTISRSNWWRTVTLQMNDLKPEDTARYYCKDLESHHLRGQGTQVTVSSAAAEPKIPQPQPKPQPQPQPQPKPQPKPEPECTCPKCP
chain 2: AWQLVESGGGSVQPGGSLTLTCQASKSTFSTSGMRWERQAQGKGVEFVADISSDSTRKWYSDSVKGRFTISRSNWWRTVTLQMNDLKPEDTARYYCKDLESHHLRGQGTQVTVSSAAAEPKIPQPQPKPQPQPQPQPKPQPKPEPECTCPKCP
On to B3, for which the “IC50, neutralization of Josiah pseudovirus” value in experiment [1] was determined as 12 µg/mL.

B4: shark VNAR B8 (VNAR)
VNAR: ARVDQTPQTVTKETGESLTINCVLRDSNCALPSTYWYRKKSGSTNEENISKGGRYVETVNSGSKSFSLRINDLRPEDSGTYRCKVHGLPLDCIPARGLELNWREDVNGGGTAVTVN
Turning to B4, the binding result in the experiment with bovine serum albumin is listed as “no binding (tested: 1 ug/ml (single concentration))”. Moreover, the “neutralization of LASV pseudotyped Josiah virus” value in experiment [1] is < 50%. In the experiment with LASV GP1 subunit protein [2], this molecule returned an equilibrium dissociation constant (Kd) of 15.9 nM. In the experiment with LASV GP1 subunit protein [3], this molecule registered a dissociation rate constant (koff) of 0.00236 s⁻¹ and a kon of 149000 M⁻¹ s⁻¹.

B5: shark VNAR C3 (VNAR)
VNAR: ARVDQTPQTITAETGESLTINCVLRNSDCGLSDTYWFRMSPGSGSEERISIGGRYLETVNSVSKSFSLRINDLTVEDSGRYRCKTDVYRYVSGSGCLYSYFASGAGTVVTVN
Regarding B5, the binding result with bovine serum albumin is on record as “no binding (tested: 1 ug/ml (single concentration))”. The “neutralization of LASV pseudotyped Josiah virus” value in experiment [1] was < 50%. Moreover, in the experiment with LASV GP1 subunit protein [2], the binding result is on record as “no binding”. In experiment [4], this molecule had a dissociation constant (Kd) of 10.6 nM, a koff of 0.000265 s⁻¹ and a kon of 25100 M⁻¹ s⁻¹.

B6: shark VNAR B10 (VNAR)
VNAR: ARVDQTPQTITKETGESLTINCVLRDSNCPLSSTFWYRADAGSLNEENISKGGRYVETVNSGSKSFSLRINDLTTEDSGTYRCKVAGLPLDCIPARGLELNWREDVYGGGTAVTVN
Turning to B6, in the experiment with bovine serum albumin, the binding result is on record as “no binding (tested: 1 ug/ml (single concentration))”. Besides, the “neutralization of LASV pseudotyped Josiah virus” value in experiment [1] is < 50%. In addition, in the experiment with LASV GP1 subunit protein [2], the Kd was found to be 78.6 nM. In the experiment with LASV GP1 subunit protein [3], this molecule showed a koff of 0.00414 s⁻¹ and an on-rate constant (kon) of 52700 M⁻¹ s⁻¹.

B7: camel VHH D5 (VHH)
VHH: AWQLVESGGGSVQPGGSLTLTCQASKSTFSTSGMRWERQAQGKGVEFVADISSDSTRKWYSDSVKGRFTISRSNWWRTVTLQMNDLKPEDTARYYCKDLESHHLRGQGTQVTVSS
On to B7, for which the “neutralization of LASV pseudotyped Josiah virus” value in experiment [1] was < 50%. The same molecule yielded a Kd with LASV GP1 subunit protein [2] of 20.8 nM. Moreover, in the experiment with LASV GP1 subunit protein [3], the Kd was 20.8 nM and the association rate constant (kon) stood at 23400 M⁻¹ s⁻¹.

What is called Kd is the equilibrium constant for the complex coming apart. For orientation: koff means the rate constant with which the complex falls apart. A low value points to slow dissociation. What is called kon is a measure of how fast the partners come together. Read a low kon as slower complex formation.
